Test results from PMC7455699, “Rapid high-yield expression and purification of fully post-translationally modified recombinant clusterin and mutants” (Scientific Reports, 2020).

B1: clusterin purified from human plasma (natural protein)
chain 1: DQTVSDNELQEMSNQGSKYVNKEIQNAVNGVKQIKTLIEKTNEERKTLLSNLEEAKKKKEDALNETRESETKLKELPGVCNETMMALWEECKPCLKQTCMKFYARVCRSGSGLVGRQLEEFLNQSSPFYFWMNGDRIDSLLENDRQQTHMLDVMQDHFSRASSIIDELFQDRFFTREPQDTYHYLPFSLPHRRPHFFFPKSRIVR
chain 2: SLMPFSPYEPLNFHAMFQPFLEMIHEAQQAMDIHFHSPAFQHPPTEFIREGDDDRTVCREIRHNSTGCLRMKDQCDKCREILSVDCSTNNPSQAKLRRELDESLQVAERLTRKYNELLKSYQWKMLNTSSLLEQLNEQFNWVSRLANLTQGEDQYYLRVTTVASHTSDSDVPSGVTEVVVKLFDSDPITVTVPVEVSRKNPKFMETVAEKALQEYRKKHREE
notes: One 'monomer' is a single α-β structure joined by 5 disulfide bonds; The protein is N-glycosylated at six sites; also called pCLU; human plasma CLU
B2: wild type recombinant human clusterin with the C-tag at the C-terminus of the β-chain (natural protein)
chain 1: SLMPFSPYEPLNFHAMFQPFLEMIHEAQQAMDIHFHSPAFQHPPTEFIREGDDDRTVCREIRHNSTGCLRMKDQCDKCREILSVDCSTNNPSQAKLRRELDESLQVAERLTRKYNELLKSYQWKMLNTSSLLEQLNEQFNWVSRLANLTQGEDQYYLRVTTVASHTSDSDVPSGVTEVVVKLFDSDPITVTVPVEVSRKNPKFMETVAEKALQEYRKKHREE
chain 2: DQTVSDNELQEMSNQGSKYVNKEIQNAVNGVKQIKTLIEKTNEERKTLLSNLEEAKKKKEDALNETRESETKLKELPGVCNETMMALWEECKPCLKQTCMKFYARVCRSGSGLVGRQLEEFLNQSSPFYFWMNGDRIDSLLENDRQQTHMLDVMQDHFSRASSIIDELFQDRFFTREPQDTYHYLPFSLPHRRPHFFFPKSRIVR
notes: The protein is cleaved into α- and β-chains and is glycosylated; also called rCLU-CT; source: MEXi293E cells, transfected, secreted into protein-free medium, purified (Capture Select C-tag column); not shown: C-tag (EPEA), C-terminal, kept
B3: wild type recombinant human clusterin with a twin Streptag at the C-terminus of the α-chain (natural protein)
chain 1: SLMPFSPYEPLNFHAMFQPFLEMIHEAQQAMDIHFHSPAFQHPPTEFIREGDDDRTVCREIRHNSTGCLRMKDQCDKCREILSVDCSTNNPSQAKLRRELDESLQVAERLTRKYNELLKSYQWKMLNTSSLLEQLNEQFNWVSRLANLTQGEDQYYLRVTTVASHTSDSDVPSGVTEVVVKLFDSDPITVTVPVEVSRKNPKFMETVAEKALQEYRKKHREE
chain 2: DQTVSDNELQEMSNQGSKYVNKEIQNAVNGVKQIKTLIEKTNEERKTLLSNLEEAKKKKEDALNETRESETKLKELPGVCNETMMALWEECKPCLKQTCMKFYARVCRSGSGLVGRQLEEFLNQSSPFYFWMNGDRIDSLLENDRQQTHMLDVMQDHFSRASSIIDELFQDRFFTREPQDTYHYLPFSLPHRRPHFFFPKSRIVR
notes: The tag is separated from the inter-chain cleavage motif by a 4-glycine spacer; About 90-95% of the protein is cleaved into α- and β-chains, and it is glycosylated; also called rCLU-αC-ST; rCLU-ST; source: MEXi293E cells, transfected, secreted into protein-free medium, purified (Streptactin-XT); not shown: twin Streptag, C-terminal, kept

Molecular target: the molecule itself
Experiment: mass photometry; proteins at 1 nM in PBS (pH 7.4), 10 µl analysed over 10 min; monomer (a single disulphide-linked α-β structure) to dimer (two non-covalently associated α-β structures)

**Q.** Which results are given for B1?
**A.** percent of species in solution that is dimer: ~60%; stoichiometry N: 2

**Q.** B2 was tested. Which “percent of species in solution that is dimer” value did it give?
**A.** ~60%

**Q.** What about the “stoichiometry N” value of the same protein?
**A.** 2

**Q.** Which “percent of species in solution that is dimer” value does the source give for B3 here?
**A.** ~60%

**Q.** What about the “stoichiometry N” value of the same protein?
**A.** 2
